Data set [1] in a line: Stability of Aβ(1-42) oligomers B in physiological buffers (SDS PAGE). Format: physicochemical. The protocol:
The Aβ(1-42) oligomers B obtained according to example 6b are tested for stability in PBS buffer under the following conditions.
5 mg/ml are diluted with PBS in 2× dilution steps down to 0.08 mg/ml. All solutions obtained are incubated at room temperature for 24 hours. This was followed by analyzing the band pattern in an SDS PAGE in comparison with a frozen control preparation.
The Aβ(1-42) oligomers B obtained according to example 6b are diluted to 0.5 mg/ml with PBS buffer and incubated at room temperature or at 37° C. for 24 h or 96 h.
Subsequently, the band pattern was analyzed in an SDS PAGE.

Data set [2] relates to murine cortical neurons. Put plainly: Neurotoxic action on murine cortical neurons (LDH release). Format: cell-based. Particulars: 24 h, various final concentrations, n=12. The protocol: Murine cortical neurons are prepared and cultured as a mixed culture with glia cells following the literature (Choi et al. (1987) J. Neurosci. 7, 357-368). The cortices of embryos on days 14-15 of development are mechanically removed from the meninges and lower brain regions. The cells are separated from one another by incubation in a 0.05% strength trypsin solution at 37° C. for 5-7 minutes and subsequently pipetting said solution several times through a pasteur pipette with reduced opening. After determining the number of cells, 430 000 cells are seeded in 0.5 ml of maintenance medium (minimum essential medium containing 0.8 mM glutamine, 18 mM glucose, 23 mM NaHCO3 and 10% of horse serum) per 2 cm^2 on cell culture material coated with poly-L-ornithine and laminine. Cultivation and later incubations of the cells are carried out in a humidified cell culture incubator at 37° C., 5% CO2. […] The cell culture supernatants are removed after 24 h, the remaining cells are destroyed by incubation in distilled water for 20 minutes and the activity of the enzyme lactate dehydrogenase (LDH) is determined enzymatically in both solutions. For evaluation, the ratio of the LDH activity of the cell culture supernatants to the sum of the LDH activities of supernatant and remaining cells is determined and the average of the quadruple determinations is formed. […]

The conditions of data set [3]: rat.
For data set [4] the following is noted: rat, in vivo; for Aβ(1-42) detected in brain extract: 10 nmol.
Data set [5] in a line: Detection of Aβ(1-42) oligomers B in rat brain homogenates after icv administration. The note with it: Western blot, after 2 hours.
The test system of data set [6] is rat primary hippocampal neurons. Put plainly: Binding to rat primary hippocampal neurons (immunofluorescence). Particulars: 200 nM, 37° C., 15 minutes, detection with 6E10 and Cy3 second antibody. Format: cell-based. The protocol:
The binding of rat Aβ(1-42) oligomers B of example 5b to rat primary hippocampal neurons was studied. The hippocampal neurons were cultured in neurobasal medium with B27 supplement on poly-L-lysine-coated cover slips and used on day 14 of the culture. The oligomers were bound to the cell membrane of the neurons by adding 200 nM (total monomeric Aβ concentration) oligomers to fresh culture medium and incubating at 37° C. for 15 minutes. After removing the Aβ-containing medium, two washing steps with medium were carried out and the cells were then fixed in 3.7% formaldehyde. After further washing of the cells, unspecific binding sites were blocked with 10% normal donkey serum in PBS buffer at room temperature for 90 min. 6E10 (from mouse) was applied as the first antibody in a 1:2000 dilution at room temperature for 2 h. The cells were washed again and incubated with the second antibody (from donkey) which is directed against mouse and which is coupled to the fluorescent dye Cy3, at room temperature for 2 h. After the cells had been washed again, the cover slips containing the neurons were fixed to a slide with embedding medium. The hippocampal neurons with bound Aβ oligomers were depicted in a fluorescent microscope. The control used was a mixture in which the first antibody 6E10 had been omitted.

Read-outs that look alike come from different tables or passages of the source. Where no end group is shown, it is not given here.

Take “Aβ(1-42) oligomers B: oligomers of human amyloid β(1-42) protein with molecular weights of 38 kDa and 48 kDa in SDS PAGE (examples 5a, 6b)”: the “band pattern in SDS PAGE” value in data set [1] (0.5 mg/ml in PBS, room temperature or 37° C., 24 h or 96 h) is “identical in all samples”. For the same substance, the “band pattern in SDS PAGE versus frozen control” value in data set [1] (PBS, 5 mg/ml down to 0.08 mg/ml, room temperature, 24 hours) is on record as “identical in all samples”. In data set [2], the “neurotoxicity (neuronal death, LDH)” value was “distinct toxic action”. Further, the “biological half life in the plasma” value in data set [3] is recorded as at least 8 hours. The “average biological half life (brain)” value in data set [4] was “about 105 min”. The “Aβ(1-42) detected in brain extract” value is “about 0.4 nmol/g” in data set [4] (0.25 h) and “approx. 0.2 nmol/g” in data set [4] (2 h). Besides, the “oligomeric structure after in vivo administration (38/48 kDa bands)” value in data set [5] is “oligomeric structure is still retained”.
For “rat Aβ(1-42) oligomers B: oligomers of rat amyloid β(1-42) protein with molecular weights of 38 kDa and 48 kDa (example 5b) (DAEFGHDSGFEVRHQKLVFFAEDVGSNKGAIIGLMVGGVVIA; also: oligomers of 38 kDa and 48 kDa)”, the “binding to the cell surface of the neurons” value in data set [6] is recorded as “bind to the cell surface of the neurons in a dotted manner”.

Source of the values: US10464976B2, “Amyloid β(1-42) oligomers, derivatives thereof and antibodies thereto, methods of preparation thereof and use thereof” (AbbVie Deutschland GmbH & Co. KG, priority 2003, dated 2019).
